# According to PMC3538687, “Detection of Cyclic Diguanylate G-Octaplex Assembly and Interaction with Proteins”:
# Key:
# [1] = molecular target: T1, HIV-1 reverse transcriptase (HIV RT) (HIV-1 (HXB2 strain), UniProt P04585;P04585 588-1147;588-1027); test: competition (DRaCALA); settings: protein: commercial; copies: 1;1
# [2] = molecular target: T1, HIV-1 reverse transcriptase (HIV RT); test: competition (DRaCALA); unlabeled PF1 vs 5 nM 32P-PF1; 960 nM RT; settings: protein: commercial; copies: 1;1
# [3] = molecular target: Thrombin protease (UniProt P00734;P00734 328-363;364-622); test: DRaCALA; 8 µM thrombin; DRaCALA on dry nitrocellulose, 10 min at room temperature; binding buffer and pH not given in the material. cdiGMP G8/M/D binding (a cyclic dinucleotide ligand)
Binder,binding result [1],other results
TAATACCCCCCCTTCGGTGCAAAGCACCGAAGGGGGGG (structured_DNA) [38 NT SELEX],binds,–
CGCCTGACCCTTCAGGCGTTGGGTGGGTGGGTGGG (structured_DNA) [S4],binds,–
AGGAAGGCTTTAGGTCTGAGATCTCGGAAT (structured_DNA) [PF1],–,IC50 [2]: 4 µM
GGTTGGTGTGGTTGG (structured_DNA) [TBA25],–,binding result [3]: binds
